B1: 5290 (protein)
chain: MTPEEIIENVRRFYAALASGDLETAKSLFDPGVTITLWDGTTFTSVEEFRAWFEAQFQTSKDALREIVSIEVEGDVVRVLVRLTFTRDGQTQEVDLLQLFKFV
B2: 5287 (protein)
chain: MTPEAIRENVRAFYAALASGDWAAAKALFDPGVTITLWDGTTFTSVEEFRAWFEKQFKTSKDALREIVSMEVEGDVVRVLVRLTFVRDGKEQVVDLLQLFKFV
B3: 5107 (protein)
chain: MTPEEIKANVEAFYAALASGDLEKAKALFDPGTTITLWDGTTFTSLEEFLAWFEKQFKASKDAKREIVSMKVEGDTVRVLVRLTYTKDGKEQVVDLLQLIKVV
B4: 5117 (protein)
chain: B3 chain with P3D, K7R, E11R, K24T, A59T, M70L, K71E, Q92E, I100L, V102F
B5: 5113 (protein)
chain: B3 chain with K7R, K24A, K58E, V68L, M70L, K71E, V72I, D75N, I100L, V102F
B6: 5112 (protein)
chain: B3 chain with K7R, E11R, K24A, M70L, K71E, T76V, T86V, Q92E, I100L, V102F
B7: 5109 (protein)
chain: B3 chain with K7R, E11K, K71E, V72I, E73N, K87V, K90E, Q92K, I100L, V102F
B8: 5111 (protein)
chain: MTPEEIRANVEAFYAALASGDLEAAKALFDPGTTITLWDGTTFTSLEEFLAWFEKQFETSKDAKREIVSLEIEGDTVRVLVRLTYTKNGEVKEVDLLQLLKFV
B9: 5286 (protein)
chain: MTPEERIANVRAFYAALASGDLEAAKALFDPGVTITLWDGTTFTSVEEFRAWFEEQFKTSKDALREIESIEVDGDTVRVLVRLTFVRDGEEKVVDLLQLFKFV
B10: 5288 (protein)
chain: B2 chain with R7I, E8A, R11K, W22L, K55E, V68E, V76T, Q92E
B11: 5295 (protein)
chain: B9 chain with R6I, I7R, E23A, K58E, E68V, I70M, D73E, V86T, D88N
B12: 5292 (protein)
chain: MTPEEIIENVKNFYAALASGDLEKAKALFDPGVTITLWDGTTFTSVEEFRKWFEEQFKTSKDALREIKSIEVEGDVVRVLVRLTFVRDGEVQEVDLLQLFKFV
B13: 5102 (protein)
chain: MSEEQIRQNLRRFYEALDSGDAITAASLFDPGVTITLWDGTTFTSVEEFREWFESQFSTSKDALREISSLEVRGDTVEVTVRLSFTRNGQKHTVDLLQLFKFVGNRVVADRVYVNPTG
B14: 5108 (protein)
chain: MTPEEIIENVKAFYAALASGDLEAAKALFDPGTTITLWDGTTFTSLEEFLEWFEKQFEASKDAKREIKSIEVEGNVVKVLVRLTYVKDGKEKVVDLLQLLKFV
B15: 5101 (protein)
chain: MSEEQIRQNLRRFYEALDSGDAITAASLFDPGVTITLWDGTTFTSVEEFREWFESQFSTSKDALREISSLEVRGDTVEVTVRLSFTRNGQKHTVDLLQLFKFVGGGGGGNRVVADRVYVNPTG
B16: 5289 (protein)
chain: MTPEEIRANVERFYAALASGDLAAAKALFDPGVTITLWDGTTFTSVEEFRAWFEEQFQTSKDALREIVSMEIDGDTVRVLVRLTFVRDGEEQEVDLLQLFKFV
B17: 5105 (protein)
chain: MTPEEIIANVKKFYEALASGDLATAKSLFDPGTTITLWDGTTFTSLEEFLAWFEKQFKASKDAKREIVSIEVDGNVVKVLVRLTYTVDGKEKVVDLLQLLKFV
B18: 5114 (protein)
chain: B17 chain with K12N, E15A, A23E, T24A, S27A, I70M, D73E, K90E
B19: 5110 (protein)
chain: B14 chain with A12K, A15E, A24T, A27S, K68L, V86T
B20: 5106 (protein)
chain: B17 chain with P3E, K11E, E15A, A23E, S27A, D73E, N75D, V76T
B21: 5118 (protein)
chain: B17 chain with K12A, E15A, T24A, S27A, E47D, V68L, S69D, D73E, N75D, K78R
B22: 5115 (protein)
chain: B14 chain with E8A, A12K, A24T, E51A, K68V, E73K, V76T, K92Q
B23: 5294 (protein)
chain: MTPEEIRANVRAFYAALASGDLEAAKALFDPGVTITLWDGTTFTSVEEFRAWFEEQFQTSKDALREIESLEVEGDVVRVLVRLTFTRDGKVEEVDLLQLFKFV
B24: 5285 (protein)
chain: MTPEEIRANVERFYAALASGDWATAEALFDPGVTITLWDGTTFTSVAEFRAWFEEQFKTSKDALREIVSLEINGDVVRVLVRLTFTRDGKEEVVDLLQLFKFV
B25: 5293 (protein)
chain: B24 chain with E11R, W22L, E55K, V68E, L70M, N73E, V76T, T86V, E92Q
B26: 5291 (protein)
chain: B2 chain with A5E, A12R, W22L, A23E, A24T, K55E, K58Q, V72I, Q92E
B27: 5116 (protein)
chain: MTPEEIRANVERFYAALASGDLDTAKALFDPGTTITLWDGTTFTSLEEFLAWFEKQFKASKDAKREIVELEIEGNVVRVLVRLTYVKDGKEQVVDLLQLLKFV

From patent US20260250737A1, “Engineered Luciferases and Luciferin Substrates” (Monod Bio, Inc., priority 2023, published 2026) come the findings set out here.

Numbering of substitutions follows the chain as printed.

The test system of one assay is SmLux. The assay is described as follows: Computationally generated LgLux variants expressed in E. coli, tested in lysates with SmLux and substrate 1c. The assay is classed as biochemical. Particulars: 20 uM SmLux, 50 uM substrate 1c. As for the experimental part:
LgLux sequences were designed computationally, and their activity measured as depicted schematically in FIG. 45.
A library of the computationally generated LgLux variants were expressed in E. coli and tested in lysates. 20 uM of SmLux and 50 uM of substrate 1c was used for the screening.
LgLux_4039 sequence is as set forth in SEQ ID NO:2773. MBIO-5103 through MBIO-5124, MBIO-5261 through MBIO-5295, MBIO-5101, and MBIO-5102 (SEQ ID NO:2815-SEQ ID NO:2873, respectively) are computationally generated LgLux. The sequences and activity of these LgLux are shown below in Table 21.
MBIO-5358 and MBIO-5360 through MBIO-5381 (SEQ ID NO:2774-SEQ ID NO:2796, respectively) are computationally generated LgLux.
Consider B1, for which the “Fold change upon SmLux peptide addition” value came to 1.11.

For B2, the “Fold change upon SmLux peptide addition” value is listed as 1.1.

Take B3: the “Fold change upon SmLux peptide addition” value was found to be 0.99.

Regarding B4, the “Fold change upon SmLux peptide addition” value is recorded as 1.05.

Take B5: the “Fold change upon SmLux peptide addition” value was determined as 1.15.

For the molecule B6, the “Fold change upon SmLux peptide addition” value was determined as 0.93.

Regarding B7, the “Fold change upon SmLux peptide addition” value is 0.98.

For the molecule B8, the “Fold change upon SmLux peptide addition” value was found to be 1.01.

As for B9, the “Fold change upon SmLux peptide addition” value came to 33.33.

For the molecule B10, the “Fold change upon SmLux peptide addition” value came out at 1.6.

Turning to B11, the “Fold change upon SmLux peptide addition” value is recorded as 1.28.

As for B12, the “Fold change upon SmLux peptide addition” value amounted to 6.75.

As for B13, the “Fold change upon SmLux peptide addition” value is 2.2.

For B14, the “Fold change upon SmLux peptide addition” value turned out to be 0.92.

On to B15, for which the “Fold change upon SmLux peptide addition” value is 0.87.

For the molecule B16, the “Fold change upon SmLux peptide addition” value was determined as 1.92.

For the molecule B17, the “Fold change upon SmLux peptide addition” value is recorded as 1.

As to B18, the “Fold change upon SmLux peptide addition” value was 1.38.

As for B19, the “Fold change upon SmLux peptide addition” value is reported as 0.97.

On to B20, for which the “Fold change upon SmLux peptide addition” value came out at 1.

As to B21, the “Fold change upon SmLux peptide addition” value is on record as 1.05.

In the case of B22, the “Fold change upon SmLux peptide addition” value is 3.07.

As to B23, the “Fold change upon SmLux peptide addition” value is listed as 1.46.

Take B24: the “Fold change upon SmLux peptide addition” value is listed as 1.26.

B25: the “Fold change upon SmLux peptide addition” value is reported as 3.78.

For B26, the “Fold change upon SmLux peptide addition” value is given as 1.02.

With B27, the “Fold change upon SmLux peptide addition” value is recorded as 1.11.

Still in this assay, the particulars now being: 50 uM substrate 1c, before SmLux peptide addition.
On to B1, for which the “Baseline Signal (Normalized by expression)” value is listed as 162.2.

Take B2: the “Baseline Signal (Normalized by expression)” value was 174.8.

As to B3, the “Baseline Signal (Normalized by expression)” value is on record as 167.8.

With B4, the “Baseline Signal (Normalized by expression)” value came to 154.8.

As for B5, the “Baseline Signal (Normalized by expression)” value came to 180.6.

With B6, the “Baseline Signal (Normalized by expression)” value was 174.4.

Consider B7, for which the “Baseline Signal (Normalized by expression)” value is reported as 169.

Consider B8, for which the “Baseline Signal (Normalized by expression)” value was found to be 166.2.

With B9, the “Baseline Signal (Normalized by expression)” value worked out at 196.

In the case of B10, the “Baseline Signal (Normalized by expression)” value amounted to 170.8.

As to B11, the “Baseline Signal (Normalized by expression)” value is listed as 186.4.

Turning to B12, the “Baseline Signal (Normalized by expression)” value is 168.6.

Regarding B13, the “Baseline Signal (Normalized by expression)” value turned out to be 2169.2.

B14: the “Baseline Signal (Normalized by expression)” value is 167.4.

B15: the “Baseline Signal (Normalized by expression)” value is on record as 229.6.

Regarding B16, the “Baseline Signal (Normalized by expression)” value is recorded as 173.8.

Regarding B17, the “Baseline Signal (Normalized by expression)” value is listed as 167.4.

Consider B18, for which the “Baseline Signal (Normalized by expression)” value was found to be 271.8.

Regarding B19, the “Baseline Signal (Normalized by expression)” value was determined as 167.6.

On to B20, for which the “Baseline Signal (Normalized by expression)” value is 169.8.

Consider B21, for which the “Baseline Signal (Normalized by expression)” value is listed as 152.

Turning to B22, the “Baseline Signal (Normalized by expression)” value came out at 165.

Regarding B23, the “Baseline Signal (Normalized by expression)” value is 175.2.

Take B24: the “Baseline Signal (Normalized by expression)” value was determined as 188.

B25: the “Baseline Signal (Normalized by expression)” value was found to be 166.2.

As to B26, the “Baseline Signal (Normalized by expression)” value was found to be 170.2.

Consider B27, for which the “Baseline Signal (Normalized by expression)” value worked out at 162.6.
